# Source: patent US20050153872A1, “Methods and compositions for the treatment of infection” (priority 2004, published 2005)
# B1: Ph-SA1: Colicin Ia linked to the AgrDI pheromone of S. aureus (protein)
# chain: SDPVRITNPGAESLGYDSDGHEIMAVDIYVNPPRVDVFHGTPPAWSSFGNKTIWGGNEWVDDSPTRSDIEKRDKEITAYKNTLSAQQKENENKRTEAGKRLSAAIAAREKDENTLKTLRAGNADAADITRQEFRLLQAELREYGFRTEIAGYDALRLHTESRMLFADADSLRISPREARSLIEQAEKRQKDAQNADKKAADMLAEYERRKGILDTRLSELEKNGGAALAVLDAQQARLLGQQTRNDRAISEARNKLSSVTESLNTARNALTRAEQQLTQQKNTPDGKTIVSPEKFPGRSSTNHSIVVSGDPRFAGTIKITTSAVIDNRANLNYLLSHSGLDYKRNILNDRNPVVTEDVEGDKKIYNAEVAEWDKLRQRLLDARNKITSAESAVNSARNNLSARTNEQKHANDALNALLKEKENIRNQLSGINQKIAEEKRKQDELKATKDAINFTTEFLKSVSEKYGAKAEQLAREMAGQAKGKKIRNVEEALKTYEKYRADINKKINAKDRAAIAAALESVKLSDISSNLNRFSRGLGYAGKFTSLADWITEFGKAVRTENWRPLFVKTETIIAGNAATALVALVFSILTGSALGIIGYGLLMAVTGALIDESLVEKANKFWGIYSTCDFIM
# modifications: Colicin attached to Pheromone peptide encoding Staphylococcus aureus AgrDI
# Assays:
# Acenetobactor (20) = experiment: In vitro antibacterial activity (MIC), clinical isolates; assay type: cell-based; conditions: 20 Acenetobactor clinical isolates
# In short: (§1)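 Clinical isolates collected in Sichuan and Beijing in 2002, identified with the API system, were exposed to test compound to determine MIC50, MIC90 and MIC range. S. aureus ATCC25923, 29213 and BAA-42 served as control strains.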
# Enterococcus (20) = experiment: as above; assay type: cell-based; conditions: 20 Enterococcus clinical isolates
# In short: as §1
# [1] = tested on: Staphylococcus aureus MRSA strain (80); experiment: as above; assay type: cell-based; conditions: 80 MRSA clinical isolates
# In short: as §1
# [2] = tested on: Staphylococcus aureus MSSA strain (88); experiment: as above; assay type: cell-based; conditions: 88 MSSA clinical isolates
# In short: as §1
# [3] = tested on: Staphylococcus epidermidis MRSE strain (25); experiment: as above; assay type: cell-based; conditions: 25 MRSE clinical isolates
# In short: as §1
# [4] = tested on: Staphylococcus epidermidis MSSE strain (21); experiment: as above; assay type: cell-based; conditions: 21 MSSE clinical isolates
# In short: as §1
# [5] = tested on: Enterococcus faecalis ATCC 700802; experiment: microbe, parasite or virus in culture; assay type: cell-based; conditions: Enterococcus faecalis, ATCC700802
# [6] = tested on: Enterococcus faecalis ATCC 700802; experiment: In vivo protection of infected mice; parameters: species or system Kungming mice; conditions: mice, i.p. infection 8.0 × 10^6 cfu/ml
# In short: (§2)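 Kunming mice (18–22 g, both sexes) were infected intraperitoneally with a lethal dose of staphylococci, enterococci or E. coli; agents were diluted in sterile water to 10, 5 and 2.5 mg/L. Deaths were counted every 24 h over 7–14 days.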
# [7] = tested on: Staphylococcus aureus MRSA 02-18; experiment: In vivo protection of infected mice; parameters: species or system Kungming mice; conditions: mice, i.p. infection 1.7 × 10^5 cfu/ml
# In short: as §2
# [8] = tested on: Staphylococcus aureus MRSA BAA-42; experiment: In vivo protection of infected mice; parameters: species or system Kungming mice; conditions: mice, i.p. infection 5.5 × 10^5 cfu/ml
# In short: as §2
# [9] = tested on: Staphylococcus aureus MRSA BAA-42; experiment: microbe, parasite or virus in culture; assay type: cell-based; conditions: Staphylococcus aureus MRSA BAA-42
# [10] = tested on: Staphylococcus aureus MRSA 02-18; experiment: microbe, parasite or virus in culture; assay type: cell-based; conditions: Staphylococcus aureus MRSA 02-18
# [11] = tested on: Staphylococcus aureus ATCC 29213; experiment: MIC against challenge strain (Table 3); assay type: cell-based
# Escherichia coli 02-1-65 [12] = experiment: In vivo protection of infected mice; parameters: species or system Kungming mice; conditions: i.p. infection 3.3 × 10^5 cfu/ml
# In short: as §2
# [13] = tested on: Staphylococcus aureus ATCC 29213; experiment: In vivo protection of infected mice; parameters: species or system Kungming mice; conditions: i.p. infection 3.6 × 10^5 cfu/ml
# In short: as §2
# Escherichia coli 02-1-65 [14] = experiment: MIC against challenge strain (Table 3); assay type: cell-based
# MRSA strain ATCC BAA-42 = experiment: Electron micrographs of bactericidal effects; assay type: cell-based, S. aureus; conditions: Ph-SA 50 μg/ml 0.5 hrs; wild type colicin Ia 50 μg/ml 2 hrs; AgrDI 10 μg/ml 2 hrs
# Text: Electron Micrographs of Bactericidal Effects of Ph-SA1 Against ATCC BAA-42 MRSA Strain Cells (1% Phosphotungstic Acid. 25,000×)
# [15] = tested on: S. epidermidis BQIOC 26069; assay type: cell-based; conditions: all agents at 2 ug/ml
# Experimental: All agents were at 2 ug/ml.
# ATCC 700802 VRE cells = experiment: Electron micrographs of bactericidal effects of Ph-EF; assay type: cell-based, Enterococcus; conditions: Ph-EF 10 ug/ml 0.5 and 2 hr; Ph-SA 10 ug/ml 2 hr; vancomycin 20 ug/ml 2 hr
# Experimental: Electron Microraphs of Bactericidal Effects of Ph-EF Against ATCC 700802 VRE Cells (1% Phosphotungstic Acid, 15.000×).
# Bactericidal effects of ph-EF were tested and monitored by electron microscopy. FIG. 16 depicts electron micrographs of (a) untreated cells; (b) and (c) cells treated with Ph-EF (10 ug/ml) for 0.5 hr; (d) untreated cells for 2 hr; (e) cells treated by Ph-SA (10 ug/ml) for 2 hr; (f) cells treated with vancomycin (20 ug/ml) for 2 hr; (g) and (h) cells treated with Ph-EF (10 ug/ml) for 2 hrs.
# [16] = tested on: HL-7702 human liver cells; experiment: Toxicity assessment in mammalian cells; assay type: cell-based; conditions: about 200 micrograms per ml; 48 hours incubation
# Experimental: (§3) To assess potential toxicity to mammalian cells, HL-7702 human liver cells and SMMC-7721 human hepatocellular carcinoma cells (Institute of Biochemistry & Cell Biology, Shanghai, Chinese Academy of Science) were grown in 1640 medium and treated with various fusion peptides. The concentration of antivirus and antibacterial peptides used for treating the cells was about 200 micrograms per ml. Equal amounts of stock solution (20 mM PBS, pH 7.4) was added to the control cells.
# [17] = tested on: SMMC-7721 human hepatocellular carcinoma cells; experiment: Toxicity assessment in mammalian cells; assay type: cell-based; conditions: about 200 micrograms per ml; 48 hours incubation
# Experimental: as §3
# [18] = tested on: Aspergillus niger SWA 1011 strain; experiment: In vitro cell growth inhibition assay; conditions: Ph-CA 5 μg/ml; Ph-SA 5 μg/ml; amphotericin B 200 ng/ml; Fluconazole 3 μg/ml
# [19] = tested on: Candida albicans ATCC 10231; experiment: In vitro cell growth inhibition assay (OD595, filaments); conditions: Ph-CA 5 μg/ml; Ph-SA 5 μg/ml; ampicillin 50 μg/ml; amphotericin B 200 ng/ml; fluconazole 3 μg/ml
# [20] = tested on: S. aureus strain ATCC BAA-42 MRSA; conditions: all agents 5 μg/ml
# [21] = 1st Time, i.v. treatment after one hour
# [22] = 2nd Time (value in parentheses), i.v. treatment
molecule,measurement,setting,value
B1,MIC50,Acenetobactor (20),32 µg/mL
same,MIC90,Acenetobactor (20),>64 µg/mL
same,MIC50,Enterococcus (20),>64 µg/mL
same,MIC90,Enterococcus (20),>64 µg/mL
same,MIC50,[1],16> mg/l
same,MIC90,[1],16 µg/mL
same,MIC Scope,[1],<0.0005˜64 mg/l
same,MIC50,[2],0.5 µg/mL
same,MIC90,[2],16 µg/mL
same,MIC50,[3],>64 µg/mL
same,MIC90,[3],>64 µg/mL
same,MIC50,[4],0.25 µg/mL
same,MIC90,[4],16 µg/mL
same,MIC Scope,[4],0.125˜32 mg/l
same,MIC,[5],4 µg/mL
same,ED50,[6]; [21],4.23 mg/kg
same,ED50,[6]; [22],(3.70) mg/kg
same,ED50,[7]; [21],3.84 mg/kg
same,ED50,[7]; [22],(4.24) mg/kg
same,ED50,[8]; [21],4.32 mg/kg
same,ED50,[8]; [22],(4.23) mg/kg
same,MIC,[9],0.5 µg/mL
same,MIC,[10],0.5 µg/mL
same,MIC,[11],0.25 µg/mL
same,ED50,Escherichia coli 02-1-65 [12]; [21],3.14 mg/kg
same,ED50,Escherichia coli 02-1-65 [12]; [22],(3.12) mg/kg
same,ED50,[13]; [21],10.35 mg/kg
same,ED50,[13]; [22],(8.87) mg/kg
same,MIC,Escherichia coli 02-1-65 [14],1 µg/mL
same,bactericidal effect / effect on cell growth (electron micrographs),MRSA strain ATCC BAA-42,killed BAA-42 MRSA cells
same,inhibition of cell growth,[15],only partially inhibited
same,morphological alteration in VRE cells (electron micrographs),ATCC 700802 VRE cells,no morphological alteration
same,cell morphology and cell growth (toxicity),[16],not toxic to the liver cells
same,cell morphology and cell growth (toxicity),[17],not toxic to the liver cells
same,effect on growth of Aspergillus niger,[18],no effect on the growth
same,effect on growth of Candida albicans,[19],no effect on the growth
same,inhibition of growth,[20],best inhibitory effects
